Assays:
[1] = target: T1, Tie2 receptor on HUVEC (human, UniProt Q02763 23-1124); assay: cell-based or functional assay
[2] = target: T1, Tie2 receptor on HUVEC; assay: summary sentence of Example 3 (co-IP and HUVEC activation)

T1 sequence (Q02763 23-1124): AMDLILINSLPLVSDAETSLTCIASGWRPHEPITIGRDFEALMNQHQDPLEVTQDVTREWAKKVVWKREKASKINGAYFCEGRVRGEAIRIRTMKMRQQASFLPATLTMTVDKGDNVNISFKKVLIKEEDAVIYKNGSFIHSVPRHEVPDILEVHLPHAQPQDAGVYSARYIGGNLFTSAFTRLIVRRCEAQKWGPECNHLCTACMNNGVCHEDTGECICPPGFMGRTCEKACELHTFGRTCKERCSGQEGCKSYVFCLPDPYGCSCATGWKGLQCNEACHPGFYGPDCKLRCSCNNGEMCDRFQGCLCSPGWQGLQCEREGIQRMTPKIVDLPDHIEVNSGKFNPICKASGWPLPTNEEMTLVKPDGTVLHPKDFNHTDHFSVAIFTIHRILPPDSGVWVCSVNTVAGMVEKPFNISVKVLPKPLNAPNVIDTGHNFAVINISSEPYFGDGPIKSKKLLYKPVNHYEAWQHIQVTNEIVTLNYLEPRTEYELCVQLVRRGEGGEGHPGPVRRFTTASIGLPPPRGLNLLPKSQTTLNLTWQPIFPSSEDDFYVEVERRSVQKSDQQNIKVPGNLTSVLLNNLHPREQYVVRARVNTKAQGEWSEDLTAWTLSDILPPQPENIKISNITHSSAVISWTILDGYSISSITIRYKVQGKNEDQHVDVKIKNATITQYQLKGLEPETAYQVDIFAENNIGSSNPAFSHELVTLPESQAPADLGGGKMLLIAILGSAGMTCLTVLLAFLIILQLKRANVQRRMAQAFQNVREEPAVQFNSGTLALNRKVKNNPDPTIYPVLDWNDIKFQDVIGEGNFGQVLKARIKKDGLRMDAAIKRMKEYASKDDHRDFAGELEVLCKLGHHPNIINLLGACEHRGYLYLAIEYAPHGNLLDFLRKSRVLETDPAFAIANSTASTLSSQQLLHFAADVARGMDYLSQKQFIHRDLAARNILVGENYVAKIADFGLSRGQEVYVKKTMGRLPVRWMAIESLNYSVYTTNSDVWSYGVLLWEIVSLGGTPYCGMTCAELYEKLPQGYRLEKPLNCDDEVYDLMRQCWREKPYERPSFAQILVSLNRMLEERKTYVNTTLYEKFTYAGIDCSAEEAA

Binder	phosphorylation level of AKT (pAKT) in HUVEC treated for 20 minutes, EC50 [1] [ng/mL]	binding result [2]
ANG1-C4BP (designed binder, not shown: small tags and cut ends) KPFRDCADVYQAGFNKSGIYTIYINNMPEPKKVFCNMDVNGGGWTVIQHREDGSLDFQRGWKEYKMGFGNPSGEYWLGNEFIFAITSQRQYMLRIELMDWEGNRAYSQYDRFHIGNEKQNYRLYLKGHTGTAGKQSSLILHGADFSTKDADNDNCMCKCALMLTGGWWFDACGPSNLNGMFYTAGQNHGKLNGIKWHYFKGPSYSLRSTTMMIRPLDFGGGGSETPEGCEQVLTGKRLMQCLPNPEDVKMALEVYKLSLEIEQLELQRDSARQSTLDKEL	87	–
C4BP-ANG1 (designed binder, not shown: small tags and cut ends, Heptamer through disulfide-bridged C4BP segment; also called C4BP-ANG1 chimeric fusion protein) ETPEGCEQVLTGKRLMQCLPNPEDVKMALEVYKLSLEIEQLELQRDSARQSTLDKELGGGGSKPFRDCADVYQAGFNKSGIYTIYINNMPEPKKVFCNMDVNGGGWTVIQHREDGSLDFQRGWKEYKMGFGNPSGEYWLGNEFIFAITSQRQYMLRIELMDWEGNRAYSQYDRFHIGNEKQNYRLYLKGHTGTAGKQSSLILHGADFSTKDADNDNCMCKCALMLTGGWWFDACGPSNLNGMFYTAGQNHGKLNGIKWHYFKGPSYSLRSTTMMIRPLDF	–	binds

— patent US20230091105A1 (NORTHWESTERN UNIVERSITY, published 2023)
